Source: PMC11568366

Target: SET/template-activating factor Iβ (SET/TAF-Iβ), recombinant (UniProt Q01105)
Experiment: ITC; 300 μM reduced Cc injected (17 x 2.91 μL) into 30 μM SET/TAF-Iβ (as homodimer) in the cell, 25°C, 10 mM sodium phosphate pH 7.4; WT fitted with two cooperative binding sites, mutants with independent binding sites

A Kd of 23 µM, a dH of -4.6 kcal/mol and a stoichiometry N of 2.2 were found for “Y48pCMF cytochrome c phosphomimetic mutant (reduced) (from UniProt P99999 2-105) (natural protein)” in this work.
